Key:
Jurkat cells [1] = experiment: Relative proportions of live, apoptotic and dead Jurkat cells challenged with staurosporine (Sytox Red and MAb2C4:AF568 staining); assay type: cell-based; conditions: 2×10^−7M, 5×10^−7M and 10×10^−7M for 40 hours, FIG. 10
Method: Analysis of relative proportions of live, apoptotic and dead Jurkat cells challenged with 2×10^−7M, 5×10^−7M and 10×10^−7M staurosporine for 40 hours.

Jurkat cells [2] = experiment: FACS analysis of Jurkat cells induced to undergo Programmed Cell Death, live-stained with antibody:fluorophore conjugate; assay type: cell-based
Method: FIG. 6. Scatter plots from FACS analysis of Jurkat cells treated with the cytotoxin staurosporine (5×10^-7M) for 40 hours to induce Programmed Cell Death including apoptosis and finally cell death (necrosis). The populations of live, apoptotic and dead cells were live-stained with 1 μg/mL MAb2C4:AF568 and/or annexin V:AF488 and the fluorescence intensity (FI) of each shown on the ordinate and abscissa respectively. A: Cell populations stained with MAb2C4:AF568 alone; B: Cell populations stained with MAb2C4:AF568 plus annexin V:AF488; C: Cell populations stained with annexin V:AF488 alone; D: Cell populations stained with MAbFLAG:AF568 plus annexin V:AF488; E: No additions.
FIG. 7. Histograms from FACS analysis of Jurkat cells induced to undergo Programmed Cell Death [PCD] (as for FIG. 6). Shown are overlaid curves representative of live, apoptotic and necrotic (dead) cell populations [A, B & C]. In D these curves are aligned for ease of comparison.
FIG. 8. Overlaid scatter plots showing increasing FI of apoptotic and dead Jurkat populations stained with MAb2C4:AF568 compared to the MAbFLAG:AF568 isotype control.
FIG. 9. Scatter plots showing FI with MAb2C4:AF568 (abscissa) and/or Sytox Red (ordinate). A: Sytox Red alone; B: Increased FI of apoptotic, transition and dead (necrotic) cell populations stained with MAb2C4:AF568; C: Overlaid dot plots of A & B.
MAb2C4 is a mouse anti-human CTR antibody (IgG1) that binds an extracellular epitope and has been conjugated with AlexaFluor 568 (MAb2C4:AF568). […] MAb2C4:AF568 was validated using cell lines expressing human calcitonin receptor (hCTR).
MAbFLAG:AF568 is an IgG1 isotype control. This conjugate was validated using a stable transfectant HEK293 cell line that expresses the PA receptor tagged with a FLAG epitope sequence. The FLAG epitope is positioned on the cell surface. Annexin V:AF488 binds the plasma membrane of dying (apoptotic) and dead (necrotic) cells.

Row | Molecule | proportion of live cells (Jurkat cells [1]) | proportion of apoptotic and dead cell populations (Jurkat cells [1]; Sytox Red and MAb2C4:AF568 staining) | binding to apoptotic and dead cells (Jurkat cells [2]; Example 5 summary statement) | FI (red channel) of apoptotic and dead cell populations, histograms (Jurkat cells [2]; Jurkat cells induced to undergo PCD as for FIG. 6, compared to MAbFLAG:AF568 isotype control, FIG. 7) | fluorescence intensity (FI), scatter plots (Jurkat cells [2]; Jurkat cells, staurosporine 5×10^-7M for 40 hours, live-stained 1 μg/mL, with or without annexin V:AF488, FIG. 6) | FI of apoptotic and dead Jurkat populations, overlaid scatter plots (Jurkat cells [2]; compared to MAbFLAG:AF568 isotype control, FIG. 8) | FI of apoptotic, transition and dead (necrotic) cell populations (Jurkat cells [2]; scatter plots with Sytox Red on the ordinate, FIG. 9)
1 | CN[C@@H]1C[C@H]2O[C@@](C)([C@@H]1OC)n1c3ccccc3c3c4c(c5c6ccccc6n2c5c31)C(=O)NC4 [staurosporine] | decreases with increasing concentrations | increases |  |  |  |  | 
2 | MAb2C4:AF568: mouse anti-human CTR antibody (IgG1) that binds an extracellular epitope, conjugated with AlexaFluor 568 (conjugate) VH: QVHLQQSGAELARPGASVRLSCEASGYTFTKYWMQWIKQRPGQGLEWIGAIYPGDGDSRYTPKFKGKATLTADKSSGTAYIQLSSLASEDSAVYYCARGDGTYWGQGTLVTVSA VL: DIQMTQSPASLSASVGETVTITCRASENIYSYLAWYQQKQGKSPQLLVYKAKTLEEGVPSRFSGSGSGTQFSLKINSLQPEDFGSYYCQHHYGTPRTFGGGTKLEIK |  |  | binds apoptotic cells and is accumulated into dead cells | increase in FI | increased FI | increasing FI | Increased FI
